{"source": "paper PMC3875630", "about": "(ACS chemical biology, 2013)", "proteins": {"B1": {"name": "Selenomethionyl CalS11 (TDP-rhamnose 3'-O-methyltransferase), cell-free synthesized (enzyme, Micromonospora echinospora)", "chain": "DSGDGQDLRAFVHDSPEETETTQRLTKLLTNSPIPTEELVNNLPLFLRRHQMTDLLSMDALYRQVLDVPGVIMEFGVRFGRHLGTFAALRGVYEPYNPLRRIVGFDTFTGFPDVNDVDRVGPTAYQGRFAVPGGYPAYLKEVLDAHECSDFFGHVTQRSVLVEGDVRETVPRYLAENPQTVIALAYFDLDLYEPTKAVLEAIRPYLTKGSIVAFDELDNPKWPGENIAMRKVLGLDHAPLRLLPGRPAPAYLRWGD", "modifications": "selenomethionine in place of methionine"}, "B2": {"name": "Native CalS11 (TDP-rhamnose 3'-O-methyltransferase), from E. coli (enzyme, Micromonospora echinospora)", "chain": "MDSGDGQDLRAFVHDSPEETETTQRLTKLLTNSPIPTEELVNNLPLFLRRHQMTDLLSMDALYRQVLDVPGVIMEFGVRFGRHLGTFAALRGVYEPYNPLRRIVGFDTFTGFPDVNDVDRVGPTAYQGRFAVPGGYPAYLKEVLDAHECSDFFGHVTQRSVLVEGDVRETVPRYLAENPQTVIALAYFDLDLYEPTKAVLEAIRPYLTKGSIVAFDELDNPKWPGENIAMRKVLGLDHAPLRLLPGRPAPAYLRWGD"}}, "key": {"crystal structure [1]": {"biological_target": "the molecule itself", "experiment": "crystal structure"}, "crystal structure [2]": {"biological_target": "the molecule itself", "experiment": "crystal structure", "remark": "listed apart in the source"}}, "note": "Read-outs that look alike come from different tables or passages of the source."}
{"protein": "B1", "values": [{"measurement": "stoichiometry N", "setting": "crystal structure [1]", "result": 10}]}
{"protein": "B2", "values": [{"measurement": "stoichiometry N", "setting": "crystal structure [2]", "result": 10}]}
